Tests used:
[1] = molecular target: T1, αvβ3 integrin on human coronary artery smooth muscle cells (CASMCs) (human, UniProt P06756 31-1048; P05106 27-788); experiment: 125I-OPN binding to sub-confluent CASMCs, displaced by unlabeled OPN, 37 °C 3 h; Scatchard analysis (LIGAND program)
T1 construct: whole, on cells; Endogenous receptor on sub-confluent cultured human CASMCs (Clonetics); It was identified as the ~300 kD crosslinked band by immunoprecipitation with an αvβ3 integrin antibody; also called approximately 300 kD cell surface protein on CASMCs
Method: The radioactivity was measured by gamma counter and the specific binding was calculated by subtracting the non-specific binding from the total binding.

[2] = molecular target: T1, αvβ3 integrin on human coronary artery …; experiment: competition with 125I-OPN in affinity crosslinking on CASMCs; GRGDS at 1 µM
Method: After washing, the cells were incubated with 0.20 mM DSS in 1 ml HBSS, pH 7.6 at 37° C. for 30 min. The cells were scraped, collected by centrifugation and lysed in 40 µl of 1% Triton X-100 solution containing 1 mM PMSF, 20 µg/ml leupeptin and 2 mM EDTA.

T1 sequence (P06756 31-1048, chain 1 of 2): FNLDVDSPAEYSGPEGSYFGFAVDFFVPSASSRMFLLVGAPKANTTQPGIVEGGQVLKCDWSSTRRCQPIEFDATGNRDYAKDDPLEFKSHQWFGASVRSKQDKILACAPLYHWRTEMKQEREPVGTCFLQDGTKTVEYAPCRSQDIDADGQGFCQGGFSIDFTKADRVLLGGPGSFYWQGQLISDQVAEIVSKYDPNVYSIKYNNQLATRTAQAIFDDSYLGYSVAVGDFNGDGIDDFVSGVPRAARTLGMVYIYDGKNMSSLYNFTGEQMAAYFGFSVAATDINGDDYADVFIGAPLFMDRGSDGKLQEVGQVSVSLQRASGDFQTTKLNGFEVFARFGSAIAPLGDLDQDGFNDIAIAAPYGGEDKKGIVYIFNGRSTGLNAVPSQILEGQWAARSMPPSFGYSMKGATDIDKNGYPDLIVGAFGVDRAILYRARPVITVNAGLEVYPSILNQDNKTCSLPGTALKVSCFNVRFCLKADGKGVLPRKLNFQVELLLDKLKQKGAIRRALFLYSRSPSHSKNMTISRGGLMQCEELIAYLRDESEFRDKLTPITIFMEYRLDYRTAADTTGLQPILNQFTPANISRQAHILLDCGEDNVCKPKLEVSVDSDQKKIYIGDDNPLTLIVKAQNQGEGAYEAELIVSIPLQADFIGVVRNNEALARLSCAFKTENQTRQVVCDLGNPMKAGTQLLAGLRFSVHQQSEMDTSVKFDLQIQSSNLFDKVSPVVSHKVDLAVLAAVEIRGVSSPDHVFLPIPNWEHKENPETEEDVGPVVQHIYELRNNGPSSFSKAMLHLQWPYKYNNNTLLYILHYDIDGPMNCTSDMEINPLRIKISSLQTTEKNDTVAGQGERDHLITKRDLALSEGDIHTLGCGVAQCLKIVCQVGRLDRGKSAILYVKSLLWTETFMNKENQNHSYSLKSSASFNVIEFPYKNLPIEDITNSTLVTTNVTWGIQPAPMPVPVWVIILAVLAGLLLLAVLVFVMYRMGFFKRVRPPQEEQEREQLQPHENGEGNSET
T1 sequence (P05106 27-788, chain 2 of 2): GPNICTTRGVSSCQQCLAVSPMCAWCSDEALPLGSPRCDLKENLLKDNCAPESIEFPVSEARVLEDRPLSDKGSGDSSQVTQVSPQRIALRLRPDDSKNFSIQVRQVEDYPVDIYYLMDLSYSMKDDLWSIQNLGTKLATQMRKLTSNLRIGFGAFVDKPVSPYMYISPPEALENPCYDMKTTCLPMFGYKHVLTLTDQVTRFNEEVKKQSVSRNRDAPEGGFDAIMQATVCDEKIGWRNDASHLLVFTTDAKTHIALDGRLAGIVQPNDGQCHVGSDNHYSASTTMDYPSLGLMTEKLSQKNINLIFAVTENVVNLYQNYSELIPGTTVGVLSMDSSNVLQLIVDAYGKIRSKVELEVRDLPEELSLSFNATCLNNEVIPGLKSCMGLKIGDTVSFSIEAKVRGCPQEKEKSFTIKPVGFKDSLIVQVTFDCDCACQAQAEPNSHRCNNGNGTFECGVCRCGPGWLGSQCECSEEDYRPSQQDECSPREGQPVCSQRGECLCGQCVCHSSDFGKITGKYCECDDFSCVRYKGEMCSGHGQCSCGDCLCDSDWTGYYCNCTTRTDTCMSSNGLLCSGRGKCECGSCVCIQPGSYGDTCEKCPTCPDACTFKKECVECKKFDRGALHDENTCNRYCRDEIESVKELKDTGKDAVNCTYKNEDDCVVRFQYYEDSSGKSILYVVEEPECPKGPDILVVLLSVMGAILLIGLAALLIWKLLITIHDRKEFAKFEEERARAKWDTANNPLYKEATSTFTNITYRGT

Binder | Kd [1] | binding result [2]
human osteopontin (purified hOPN) (ligand, radioiodinated (125I, Chloramine-T method) when used as tracer; labelled residues not stated; the natural protein is described as a glycosylated phosphoprotein) not shown | 1 nM | 
GRGDS (also called GRGDS peptide) [Gly-Arg-Gly-Asp-Ser (GRGDS) oligopeptide] |  | binds

From US6458590 (US Dept. of Health and Human Services, dated 2002)
